Assay [1] concerns the target C30-His6 (short form of SafA made by internal translation of the safA mRNA) (Bacillus subtilis). The assay can be described thus: SEC-SAXS; SEC peak fractions of C30; synchrotron SEC-SAXS at BM29 ESRF with in-line HPLC; in the absence of Tgl. Background: SEC sorts molecules by how far they enter the pores of the column.
For assay [2] the target is unchanged. The assay can be described thus: SEC; purified C30-His6 applied to a size exclusion column at 3.5 mg/ml; eluted as a main single sharp peak; mass by elution position.
Assay [3] has the same target. The assay can be described thus: SDS-PAGE of the purified protein (species resistant to denaturation); purified C30 without Tgl or at time 0 of the cross-linking assays; 37°C, Tris-HCl 0.1 M, pH 8.0; 10% SDS-PAGE, Coomassie.

By stoichiometry N is commonly meant a count of units in the complex or per binding partner. On to “C30-His6 (short form of SafA made by internal translation of the safA mRNA) (natural protein)”, for which the stoichiometry N in assay [1] was determined as 6; in assay [2], 6; in assay [3], 2.

Source of the values: PMC6490927.
